These are literature values, as cited in article PMC10680782.

This data set has as its target VE-cadherin (Homo sapiens) (UniProt P33151).
Chain of UniProt P33151 (P33151 48-599): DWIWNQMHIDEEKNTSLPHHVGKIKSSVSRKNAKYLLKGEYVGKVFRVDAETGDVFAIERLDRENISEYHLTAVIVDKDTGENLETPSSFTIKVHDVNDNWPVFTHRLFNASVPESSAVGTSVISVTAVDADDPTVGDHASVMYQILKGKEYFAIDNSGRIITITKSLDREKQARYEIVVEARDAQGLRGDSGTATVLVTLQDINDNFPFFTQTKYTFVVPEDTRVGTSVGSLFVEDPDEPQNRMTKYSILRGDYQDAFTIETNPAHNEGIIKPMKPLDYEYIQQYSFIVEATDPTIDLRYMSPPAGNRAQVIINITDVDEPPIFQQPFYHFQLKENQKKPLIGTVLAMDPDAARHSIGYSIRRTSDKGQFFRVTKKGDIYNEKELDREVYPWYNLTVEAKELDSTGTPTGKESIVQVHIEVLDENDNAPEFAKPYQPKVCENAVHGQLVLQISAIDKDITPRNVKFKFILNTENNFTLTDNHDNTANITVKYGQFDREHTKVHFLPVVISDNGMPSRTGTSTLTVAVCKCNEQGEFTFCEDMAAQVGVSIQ

On to “fibrin β15-42 fragment 15-42 (from UniProt P02675)”, for which the Kd is 267 µM.
